US20110167521

Assays:
Assay in all cases: cell_activity
[1] = test system: ZFP 13722-KRAB1 (artificial); details: homozygous T2 immature seed, event 5212-4; no apparent effect in heterozygous
[2] = test system: ZFP 13722-NtERF3 (artificial); details: homozygous T2 immature seed, event 5227-12, p=0.025; no apparent effect in heterozygous
[3] = test system: ZFP 14025-VP16 (artificial); details: callus, control 2.90; 27% up-regulation p=0.05; more than 3-fold in some T0 events

Row | Sequence | activity (% FatB5 mRNA reduction) [1] | activity (% FatB5 mRNA reduction) [2] | activity (KasII/tubulin mRNA ratio) [3]
1 | AAGGAGAATTTTAGGGTTTGGGGAGACT (double strand) [FatB5 13722 target] | 15 | 21 | 
2 | CGTGGAGACGTCAAAAGA (double strand) [KASII 14025 target] |  |  | 3.69
